# Measurements as given in the nanobody polyreactivity screen of Harvey et al. (2022).
# Experiment: yeast display, Sf9 membrane polyspecificity reagent, FACS + sequencing; frameworks hold sequencing errors
# Outline: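 In a synthetic yeast display library (Saccharomyces cerevisiae BJ5465), nanobody expression was induced with galactose for 36–48 hours. FACS gates were set low and high (top ~1%) using anti-HA fluorescence for expression and streptavidin fluorescence for binding of the Sf9 membrane reagent. Each polyreactivity label is drawn from the gate of origin.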
row,Sequence,polyreactivity (PSR sort gate)
1,QVQLVESWGGLFQAGGSLRLSCAASGSIFVWYAMGRSRQAPGKEMELVAVISYGGDRTSYADSVKGRFTISRDNAKNTVYLQMNSLKPEDTAVYYCAARPFYRGYYYWGQGTQVTVSS,high polyreactivity
2,QVQLVESWGGLVQAGCSLRLRCAASGRIFGPYAMGWYRQARGQERELVAAISRSGGSTYYADSVKGRFTISRDNAKNTVYLQMKSLNPEDTAVYYCNARFVIYSRVDYWGQGTQVTVSS,low polyreactivity
3,QVQLVESWGGLVQAGGSLRLSCAASGFTFTWYAMGWSRQAPGKERELLAAITSSGGSTYYADSVKGRFTISRDNAKNTVYLQMNSLKPEDTAVYYCAAKSYWSGYFVGYEYWGQGTQVTVSS,high polyreactivity
4,QVQLVESWGGLVQAGGSLRLSCAASGGTFSANAMGWYRQAPGKERELVAAISTSGGSTHYADSVKGRFTISRDSAKNTVYLQMNSLNPEDTAVYYCAARLYSYRRQYGYWGHGTQVTVSS,high polyreactivity
5,QVQLVESWGGLVQAGGSLRLSCAASGINFQNYDMGWYRQAPGKERELVAAINGSGGSTYYADSVKGRFTISRDNANNTVYLQMNSLKPEDTAVYYCNAVWEYYGKSDYWGQGTQVTVSS,low polyreactivity
6,QVQLVESWGGLVQAGGSLRLSCAASGITFDGYDMGWYRQAPGKERELVATIDSGGITYYADSVKGRFTISRDNAKNTVYLQMNSLKPEDTAVYYCNADEWYYNFDIVEFDYWGQGTQVTVSS,low polyreactivity
7,QVQLVESWGGLVQAGGSLRLSCAASGLIFYYNAMAWYRQAPGKERELVAAISRRGGGTYYADSVKGRFTISRDNAKNTVYLLMNSLKPEDTAVYYCAAGSPFSPGKYDYWGQGTQVSVSS,high polyreactivity
8,QVQLVESWGGLVQAGGSLRLSCAASGLTFETYVMGRYRQAPGKEREFVAAISSSGRTYYADSVKGRFTISRDNAKNTVYLQMNSLKPEDTAFYYCAARGREFGYWGQGTQVTVSS,high polyreactivity
9,QVQLVESWGGLVQAGGSLRLSCAASGMGRYRQAPGKERELVAAINWSGGNTYYADSVKGRFTISRDNAKNTVYLQMNSLIPEDTAVDYCNAVVWVEVPGDYWGQGTQVTVSS,low polyreactivity
10,QVQLVESWGGLVQAGGSLRLSCAASGRIFKRNTMGWNRQAPGKQRELVAAITGSSGSTYYADSVKGRFTNSRDNAKNTVYLQMNSLKPEDTAVYYCNTVRSVYQYWPYNYWGQGTQVTVSS,high polyreactivity
11,QVQLVESWGGLVQAGGSLRLSCAASGRIFRGYAMGWYRQAPGKERELVAVISYSGTRTYYADSVKGRFTISRDNAKNTVYLQMNSLKPEDTAVYYCNARANGFKDGYWGQGTQVTVSS,high polyreactivity
12,QVQLVESWGGLVQAGGSLRLSCAASGRIFVKYAMGWYRQAPGKERELVAAISWIGGSTYYADSVKGRFTISRDNAKNTVYLQMNSLKPEDTAVYYCAAQGKDYEASPGYDGGRNYWGQGTQVTVSS,low polyreactivity
13,QVQLVESWGGLVQAGGSLRLSCAASGRTFKIYTMGWYRQAPGKERELVAAISRGGSTYYADSVKGRFTISRDNAKNTVYLQMNSLKPEDTAVYYCAVDLYYLSSASTRQVRRDYWGQGTQVTVSS,high polyreactivity
14,QVQLVESWGGLVQAGGSLRLSCAASGSIFAINAMGWYRQAPGTERELVAAIRSGGRTYYADSVKGRFTISRDNAKNTVYLQMNSLKPEDTAVYYCNAGGKWIGSDYCGQGTQVTVSS,high polyreactivity
15,QVQLVESWGGLVQAGGSLRLSCAASGSIFRPYAMGWYRQAPGKERELVAAISSSGGSTYYADSVKGRFTISRDNAKNTVYLQMNSLKPEDTAVYYCAAESRSTWIHSRDYWGQGTQVTVSS,low polyreactivity
16,QVQLVESWGGLVQAGGSLRLSCAASGSIFYSNAMGWYSQAPGKERELVAAIRTSAGSTYYADSVKGRFTISRDTAKNTVYLQMNSLKPEDTAVYYCAAVTTYYYYDVSDYAYEFYYWGQGTQVTVSS,low polyreactivity
17,QVQLVESWGGLVQAGGSLRLSCAASGSTFDVNAMGWYRQAPGKERELVAAISWNSGSTYYADSVKGRFTISRDNAKNTVYLQMNSLKPEDTAVYYCAARNPFNHPLDYWGQGTQVTVSS,high polyreactivity
18,QVQLVESWGGLVQAGGSLRLSCAASGSTFQPYAMGWYRQAPGKERELVAAIRSIAGSTYYADSVKGRFTISRDNAKITVYLQMNSLKPEDTAVYYCAADWWRVEMDYWGQGTQVTVSS,low polyreactivity
19,QVQLVESWGGLVQAGGSLRLSCAASGSTFVKNAMGWYRQAPGKERELVAAISYRGGRTYYADSVKGRYTISRDNAKNTVYLQMNSLKPEDTAVYYCNARYRTPSFIRMGYWGQGTQVTVSS,high polyreactivity
20,QVQLVESWGGLVQAGGSLRLSCAASGSTIDTNTMGWYRQAPGKEREWVAAITWSDASTYADSVKGRFTISRDNAKNTVYFQMNSLKPEDTAVYYCNADWTITVGYDYWGQGTKVTVSS,low polyreactivity
21,QVQLVESWGGLVQAGGSLRLSCAASGSTLGNNGMGWYRQAPGKERELVAAIDSTVTTNYADSVKGRFTISRDNAKKSVYLHMNSLKPEDTAVYYCAADYWGQGTQVTVSS,low polyreactivity
22,QVQLVESWGGLVQAGGSLRLSCADSGRIFLRNTMGWYRQAPGKERELVATISKSAGSTYYADSVKGRFTISRDNAKNSVYLQMNSLKPEDTAVYYCATSRYLKLGYDYWGQGTQVTVSS,high polyreactivity

row,Sequence,polyreactivity (PSR sort gate)
1,QVQLVESWGGLVQAGGSLRLSCADSGSTFNVNAMGWYSQAPGKESELVATITESGGRTYYADSVKGRFTISRDYAKNNVYLQMNSLKPEDTAVYYCARGDAWTFDYEPYDYWGQGTQVTVSS,low polyreactivity
2,QVQLVESWGGLVQAGGSLRLSCASSGITFSPYALGWYRQAPGKERELVAAISSRGGSTYYADSVKGRFTISRDNAKNTVYFQMNSLKPEDTAVFYCNALTFVRYLFHYTYWGQGTQVTVSS,high polyreactivity
3,QVQLVESWGGLVQEGRSLRLSCAASGYTFQRYNIRWYRPAPGKERELVAAINWSGGSTYYADSVKGRFTISRDNAMNTVYLQMIWLKPEDTAVYYFSRRYRDYGGYGYWGQGTQVSVSS,high polyreactivity
4,QVQLVESWGGLVQSGGSLRLISAASGRTYYYYVMGCYRQAPGKERDLVATINSGASTYYADSVKGRFTISRDNAKNTVYLQMNSLNPEDTAVYYCAACVLRRIAGVRYRYGFWGQGTQVTVSS,high polyreactivity
5,QVQLVETAGGLVQAGASLRLSSAASGITFAYYAMGWYRQAPAKERELVAAISSSGGSTYYADSVKGRFTISRDNAKNTVYLQLNSLNPEDTAVYYCAVDYSYWVEYWGLGTQVTVSS,high polyreactivity
6,QVQLVETAGGLVQAGGSLRLSSAASGRTFTLNAMGWYRQAPGKERELVATISRRGGSTYYADSVKGRFTISRDNAKNTVYLQMNSLNPEDTAVYYCNAGSSVLKYDYWGQGTEVTVSS,low polyreactivity
7,QVQLVETGGALVQAGGSLRLSCAASGYTFYRYAMGWYRQATGKERELVAAISYSGGRTYYADSVKGRFTISCDIAKNTVYLQMNSLKPEDTAVYYCNARASYGHQGRLGYARLYYWGQGTQVTVSS,high polyreactivity
8,QVQLVETGGCLVQAGGSLRLSCAASGFTFRGYAMGWYRQAPGKERELVAAITAGGGSTSYADSVKGRFTISRDNAKNTVYLLMNSLKPEDTAVYYCAKDRYYGYFRSRSDYWGQGTQVTVSS,high polyreactivity
9,QVQLVETGGCLVQAGGSLRLSCAASGSTLHYYAMGWSRQAPGKQREFVAGISRYGGRTYNADSVKGRFTISRDNAKNTVYLQMNSLKPEDTAVYYCNAVLVGYRPYREFDHWGQGTQVTVSS,high polyreactivity
10,QVQLVETGGGIVQAGGSLRLSCAAYGRILWYYAMGWYRQAPGKERELVAAITSGGSTYYADSVKGRFTLSRDIAKNTVYLQMNSLKPEDTAVYYCNAYYTYRFNYWGQGTQVTVSS,high polyreactivity
11,QVQLVETGGGLDQAGGSLRLRCAASGSIFLIYGMGWYRQAPGKERELDAAITARCGSTYYADSVKGRFTISRDNAKNTVYLLMNSLKPEDTAVYYCAADEYEALGKFQPYQFDYWGQGTQVTVSS,low polyreactivity
12,QVQLVETGGGLDQAGGSLRLSCAASGRTSRYAMGWYRQAPGKEMELVAAISRNGRTTSYADSVKGRFTISRDNAKNTVYLQKNSLKPEDTAVDYCNAYSAFVPPTRGYYWGQGTQVTVTS,high polyreactivity
13,QVQLVETGGGLFHAGGSLRLSCAASGRIFVGYAMGWYIQAPGKERELVAAINSGGRTNYADSVKGRFTISRYNAKNNVYLQMNSLKPEDTAVYYCAATLRPYSSFPNRYGYWGQGTQVTVSS,low polyreactivity
14,QVQLVETGGGLVHAGGSLRISCAASGLTFRGNAMGWYRQAPGKERELVATISSGGITNYADSVKGRFTISRDNAKNTVYLQMNSLKPEDTAVYYCAADWFVHKPRYQNSFDYWGQGTQVTVSS,low polyreactivity
15,QVQLVETGGGLVHAGGSLRLSCAASGSIFGYYTMGWYIQAPGKERELFAAITYSGGSTYYADSVKGRFTISRDNAKNTVYLQMNSLKPDDTAVYYCNAKSAAHRYVRRHDYWGQGTQVTVSS,low polyreactivity
16,QVQLVETGGGLVKAGGSLRLSCAASGRTFGKYAMGWYRQETGKESELVAAITTRVVITYYADSVKGRFTISRDNAKNTVYLQMNSLKPEDTAVYYCAADPEKNYRPFNHYYYWGQGTQVTVSS,low polyreactivity
17,QVQLVETGGGLVQAGCSLRLSCAASGSIFSYYAMGWSRQAPGKERELVAGITGSGGSTYADSVKGRFTISRDNAKNTVYLQMNSLKPEDTAVYYCAADLQRYWWWYEYWGQGTQVTVSS,high polyreactivity
18,QVQLVETGGGLVQAGGILRLSCAASGSTFGYNAMGWYRQAPGKERELVASITWSSGSTYYADSVKGRFTISRDNAKNTVYLQMNSLKPEDSAVYYCYAKRFRHYGGYYYWGQGTQVTVSS,low polyreactivity
19,QVQLVETGGGLVQAGGRLRLSCAASGSTFKNNAMGWSRQAPGKEREFVAGITRRGTSTYYADSVKGRFTISRDNAKNTVYLQMNSLKPEDTAVYYCNARLRARSTIKLDYWGQGTQVTVSS,high polyreactivity
20,QVQLVETGGGLVQAGGSHRLSCAASGLTFYTYAMGWYRQAPGKERELVAAISTNGGSKYYADSVKGRFTISRDNAKNTVYLQRNCLKPEDTAVYYCAIEGGTYRIFNYWGQGTQVTVSS,low polyreactivity
21,QVQLVETGGGLVQAGGSHRLSCAASGSTFDAYAMGWYRQAPGKETELVAGISIVGSTNYADSVKGRFTISRDNAKNTVYLKMNSLKPEDTAVLYCAADRDWQYSFRPSVYGYDYVYWGQGTQVTVSS,low polyreactivity
